Results on 9 variants are retold here after article PMC11406360, “The enzymatic oxygen sensor cysteamine dioxygenase binds its protein substrates through their N-termini” (The Journal of Biological Chemistry, 2024).

To fix the notation:
B1: native RGS5 peptide (first 14 amino acids of the methionine excised N terminus of RGS5) [human] / 2-aminoethanethiol (cysteamine) dioxygenase (ADO), biotinylated, for SPR [modified: biotin (N terminally biotinylated; 0.2 mM biotin added at … (parent complex)
chain 1: CKGLAALPHSCLER
chain 2: MPRDNMASLIQRIARQACLTFRGSGGGRGASDRDAASGPEAPMQPGFPENLSKLKSLLTQLRAEDLNIAPRKATLQPLPPNLPPVTYMHIYETDGFSLGVFLLKSGTSIPLHDHPGMHGMLKVLYGTVRISCMDKLDAGGGQRPRALPPEQQFEPPLQPREREAVRPGVLRSRAEYTEASGPCILTPHRDNLHQIDAVEGPAAFLDILAPPYDPDDGRDCHYYRVLEPVRPKEASSSACDLPREVWLLETPQADDFWCEGEPYPGPKVFP

This experiment covers variants of B1. The experiment can be described thus: SPR; parent: 290 nM. Background: Surface plasmon resonance follows binding to a sensor surface in real time, without labels.
For chain 1 CKGLAALPHSCLAR, the Kd – broadly, the constant that tells how readily two partners part at equilibrium – was determined as 260 nM.

As to chain 1 CKGLAAAPHSCLER, the dissociation constant Kd worked out at 310 nM.

Turning to chain 1 CKGAAALPHSCLER, the dissociation constant Kd is 220 nM.

On to chain 1 CKGLAALPHSCAER, for which the Kd is 260 nM.

Consider chain 1 CKGLAALPHACLER, for which the dissociation constant Kd was 350 nM.

As to chain 1 CKGLAALPASCLER, the Kd was determined as 240 nM.

Regarding chain 1 CKGLAALPHSALER, the Kd came out at 300 nM.

In the case of chain 1 CKGLAALAHSCLER, the dissociation constant (Kd) came out at 250 nM.

For the variant chain 1 CKGLAALPHSCLEA, the Kd is 210 nM.
